The target in the assay is mini-MUC1 polypeptide (product of the miMUC1 gene, human DF3/MUC1 with 7 variant tandem repeats) (human) (UniProt P15941). The experiment in a line: flow cytometry, 1 ug/ml DF3 MAb on MC38/MUC1 cells, fluorescein-labeled goat anti-mouse IgG.

Here are results for one substance from patent US20030021770A1.

UniProt P15941, sequence (P15941 other isoform, or with tags, fused parts or gaps mutant, form in doubt): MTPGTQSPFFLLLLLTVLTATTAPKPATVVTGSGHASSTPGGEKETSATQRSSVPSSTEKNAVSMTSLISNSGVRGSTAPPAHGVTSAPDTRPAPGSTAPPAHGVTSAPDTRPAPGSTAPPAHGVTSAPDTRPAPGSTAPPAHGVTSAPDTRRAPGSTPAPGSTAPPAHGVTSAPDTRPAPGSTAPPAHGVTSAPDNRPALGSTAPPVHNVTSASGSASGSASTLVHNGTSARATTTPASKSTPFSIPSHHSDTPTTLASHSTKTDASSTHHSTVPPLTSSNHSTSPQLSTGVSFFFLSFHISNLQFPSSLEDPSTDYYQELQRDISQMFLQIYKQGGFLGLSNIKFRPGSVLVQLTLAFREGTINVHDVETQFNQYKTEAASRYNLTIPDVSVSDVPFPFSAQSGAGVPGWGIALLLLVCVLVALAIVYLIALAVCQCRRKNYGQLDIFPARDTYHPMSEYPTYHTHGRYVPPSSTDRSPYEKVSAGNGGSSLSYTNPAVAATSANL

As for DF3 monoclonal antibody (anti-MUC1), the mean fluorescence amounted to 400 and the percent of cells positive worked out at 87.5%.
